B1: TIP41 fragment D4 (pHA vector, HEK293T) (other)
chain: MLKVACAEEWQESRTEGEHSKEVIKPYDWTYTTDYKGTLLGESLKLKVVPTTDHIDTEKLKAREQIKFFEEVLLFEDELHDHGVSSL
notes: also called TIP41-D4; not shown: HA tag of the pHA vector
B2: TIP41 fragment D1 (pHA vector, HEK293T) (other)
chain: MMIHGFQSSHRDFCFGPWKLTASKTHIMKSADVEKLADELHMPSLPEMMFGDNVLRIQHGSGFGIEFNATDALRCVNNYQGMLKVACAEEWQESRTEGEHSKEVIKPYDWTYTTDYKGTLLGESLKLKVVPTTDHIDTEKLKAREQIKFFEEVLLFEDELHDHGVSSL
notes: also called TIP41-D1; not shown: HA tag of the pHA vector
B3: MKK7 fragment D5 (pGST vector, HEK293T) (other)
chain: AGCAAYMAPERIDPPDPTKPDYDIRADVWSLGISLVELATGQFPYKNCKTDFEVLTKVLQEEPPLLPGHMGFSGDFQSFVKDCLTKDHRKRPKYNKLLEHSFIKRYETLEVDVASWFKDVMAKTESPRTSGVLSQPHLPFFR
notes: also called MKK7-D5; not shown: GST tag of the pGST expression vector
B4: TIP41 in cell lysate (immunoprecipitated with TIP41 antibody; the cells' own TIP41) (other)
chain: MMIHGFQSSHRDFCFGPWKLTASKTHIMKSADVEKLADELHMPSLPEMMFGDNVLRIQHGSGFGIEFNATDALRCVNNYQGMLKVACAEEWQESRTEGEHSKEVIKPYDWTYTTDYKGTLLGESLKLKVVPTTDHIDTEKLKAREQIKFFEEVLLFEDELHDHGVSSLSVKIRVMPSSFFLLLRFFLRIDGVLIRMNDTRLYHEADKTYMLREYTSRESKISSLMHVPPSLFTEPNEISQYLPIKEAVCEKLIFPERIDPNPADSQKSTQVE
notes: also called TIPP41
B5: TIP41 (full length TIP41 protein expressed from the pHA vector in HEK293T cells) (other)
chain: B4 chain
notes: Cloned from liver cancer cell RNA into pHA; also called TIPRL; TOR Signaling Pathway Regulator-Like; not shown: HA tag of the pHA vector (pcDNA3.1 with HA tag)
B6: TIP41 fragment D5 (pHA vector, HEK293T) (other)
chain: MMIHGFQSSHRDFCFGPWKLTASKTHIMKSADVEKLADELHMPSLPEMMFGDNVLRIQHGSGFGIEFNATDALRCVNNYQGMLKVACAEEWQESRTEGEH
notes: also called TIP41-D5; not shown: HA tag of the pHA vector
B7: TIP41 fragment D2 (pHA vector, HEK293T) (other)
chain: MMIHGFQSSHRDFCFGPWKLTASKTHIMKSADVEKLADELHMPSLPEMMFGDNVLRIQHGSGFGIEFNATDALRCVNNYQGMLKVACAEEWQESRTEGEHSKEVIKPYDWTYTTDYKGTLLGESLKLKVVPTTDHIDTEKLKAREQIKFFEEVLLFEDELHDHGVSSLSVKIRVMPSSFFLLLRFFLRIDGVLIRMNDTRLYHEADKTYMLREYTSRESKISSLMHVPPS
notes: also called TIP41-D2; not shown: HA tag of the pHA vector

For experiment [1], the target named is T1, MKK7 (full length MKK7 expressed from the pGST vector in HEK293T cells) (human, UniProt O14733 1-419).
T1 construct: also called full length MKK protein; not shown: GST tag of the pGST (pEBG) vector
T1 sequence: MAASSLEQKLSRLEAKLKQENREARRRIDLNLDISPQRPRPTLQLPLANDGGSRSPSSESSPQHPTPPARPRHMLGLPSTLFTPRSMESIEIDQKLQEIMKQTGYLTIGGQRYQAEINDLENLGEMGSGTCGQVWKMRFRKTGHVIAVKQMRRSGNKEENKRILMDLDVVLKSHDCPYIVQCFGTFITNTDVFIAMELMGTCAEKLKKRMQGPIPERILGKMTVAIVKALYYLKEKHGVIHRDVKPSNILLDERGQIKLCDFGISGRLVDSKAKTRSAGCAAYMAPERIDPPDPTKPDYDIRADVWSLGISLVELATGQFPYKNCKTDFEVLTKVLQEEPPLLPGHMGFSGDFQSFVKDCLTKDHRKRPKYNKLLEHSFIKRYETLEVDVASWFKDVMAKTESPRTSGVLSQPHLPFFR
The experiment in a line: GST pull-down from HEK293T lysate, Western blot.

The target of experiment [2] is B5. The experiment in a line: GST pull-down from HEK293T lysate, Western blot. On the technique in general: Immunoblotting shows a protein as a band on a membrane.
Experiment [3] deals with T2, MKK7 in cell lysate (immunoprecipitated with MKK7 antibody; the cells' own MKK7) (human, UniProt O14733 2-419, limits assumed).
T2 sequence: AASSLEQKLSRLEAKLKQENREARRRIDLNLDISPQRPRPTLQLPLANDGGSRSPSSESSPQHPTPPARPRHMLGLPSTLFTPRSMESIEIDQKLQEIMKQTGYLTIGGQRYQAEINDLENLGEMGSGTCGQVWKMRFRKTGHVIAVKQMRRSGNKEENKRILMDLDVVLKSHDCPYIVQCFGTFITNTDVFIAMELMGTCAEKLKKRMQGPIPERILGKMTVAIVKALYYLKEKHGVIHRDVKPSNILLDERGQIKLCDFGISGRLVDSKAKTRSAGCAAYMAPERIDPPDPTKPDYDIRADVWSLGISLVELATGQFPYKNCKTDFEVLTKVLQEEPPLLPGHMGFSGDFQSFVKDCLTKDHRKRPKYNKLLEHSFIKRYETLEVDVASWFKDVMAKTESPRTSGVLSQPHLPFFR
The experiment in a line: immunoprecipitation (legend of FIG. 11B). On the procedure: In order to identify interaction between TIP41 and MKK7, each antibody was used to perform immunoprecipitation, and binding between TIP41 and MKK7 was identified with Western Blotting. Immunoprecipitation is done by adding about 2 μg antibody of protein to be precipitated into 1 mg cell lysate and reacted for about 2 hours in about 4° C., and add about 30 μl Protein G sepharose bead into each and react for about 12 hours in about 4° C. Afterwards, about 1 ml PBST[0.1% Tween20 included PBS] buffer was added for washing, and the procedure was repeated for about 4 times. Then 100 μl 1× sample buffer (for Western Blotting) was added into the washed bead, and then it was boiled for about 5 minutes in about 95° C. heating block, and was cooled in ice for about 2 minutes. Afterwards, Western Blotting was performed using MKK7 and TIP41 antibody.

The target in experiment [4] is T3, MKK7 fragment D1 (pGST vector, HEK293T) (human, UniProt O14733 85-419, limits assumed).
T3 construct: also called MKK7-D1; not shown: GST tag of the pGST expression vector
T3 sequence: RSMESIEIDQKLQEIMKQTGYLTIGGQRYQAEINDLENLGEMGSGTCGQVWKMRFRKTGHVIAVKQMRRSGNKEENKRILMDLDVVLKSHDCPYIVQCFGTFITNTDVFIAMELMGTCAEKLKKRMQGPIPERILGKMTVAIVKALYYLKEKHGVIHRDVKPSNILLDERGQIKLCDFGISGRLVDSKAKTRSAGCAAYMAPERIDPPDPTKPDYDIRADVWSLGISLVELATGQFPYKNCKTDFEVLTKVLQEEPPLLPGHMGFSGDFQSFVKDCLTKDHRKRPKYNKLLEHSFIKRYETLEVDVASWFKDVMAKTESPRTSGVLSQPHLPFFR
The experiment in a line: GST pull-down from HEK293T lysate, Western blot.

For the molecule B1, in experiment [1], the binding result is given as “no binding”.
On the same count and under the same terms, with B2 the entry was “no binding”.
As to B3, the binding result in experiment [2] is recorded as “no binding”.
As for B4, the binding result in experiment [3] is recorded as “binds”.
With B5, the binding result in experiment [4] was “no binding”.
In the case of B6, the binding result in experiment [1] was “no binding”.
Still for that read-out and setting: with B7 the entry was “no binding”.

For the origin of these results see US20120315284A1 (KOREA RESEARCH INSTITUTE OF BIOSCIENCE AND BIOTECH, published 2012).
